Data published in patent publication US20210355205A1 (published 2021).
Substitutions are numbered along the chain they refer to.

Assays:
recombinant human IL-5 [1] = biological target: recombinant human IL-5 (human, UniProt P05113 20-134); assay: Biacore, Ab on Protein A chip
Cynomolgus IL-5 = Cynomolgus IL-5 (cynomolgus monkey); assay: cell-based or functional assay
recombinant human IL-5 [2] = biological target: recombinant human IL-5 (human, UniProt P05113 20-134); assay: Biacore

B1: 3A5.211 (antibody, human IgG4 S228P, lambda, name in Kabat numbering, V domains shown)
VH: QVQLQESGPGLVKPSQTLSLTCTVSGGSISNGGYYWSWIRQHPGKGLEWIGYIYYSGSTYYNPSLKSRVTISVDTSKNQFSLKLSSVTAADTAVYYCASLGNWFDYWGQGTLVTVSS
VL: SYVLTQPPSVSVAPGQTARITCGGNNIGSKNVYWYQQKPGQAPVLVVHDDSDRPSGIPERFSGSNSGNTATLTISRVEVGDEADYSCQAWDSSSDHVVFGGGTKLTVLG
proportional kd vs parent 3A5.040 (recombinant human IL-5 [1]): 1 ratio

B2: 3A5.046 (antibody, human IgG4 S228P, lambda)
heavy: QVQLQESGPGLVKPSQTLSLTCTVSGGSISNGGYYWSWIRQHPGKGLEWIGYIYYSGSTYYNPSLKSRVTISVDTSKNQFSLKLSSVTAADTAVYYCASLGNWFDYWGQGTLVTVSSASTKGPSVFPLAPCSRSTSESTAALGCLVKDYFPEPVTVSWNSGALTSGVHTFPAVLQSSGLYSLSSVVTVPSSSLGTKTYTCNVDHKPSNTKVDKRVESKYGPPCPPCPAPEFLGGPSVFLFPPKPKDTLYITREPEVTCVVVDVSQEDPEVQFNWYVDGVEVHNAKTKPREEQFNSTYRVVSVLTVLHQDWLNGKEYKCKVSNKGLPSSIEKTISKAKGQPREPQVYTLPPSQEEMTKNQVSLTCLVKGFYPSDIAVEWESNGQPENNYKTTPPVLDSDGSFFLYSRLTVDKSRWQEGNVFSCSVMHEALHNHYTQKSLSLSLG
light: SYVLTQPPSVSVAPGQTARITCGGNNIGSKNVYWYQQKPGQAPVLVVHDDSDRPSGIPERFSGSNSGNTATLTISRVEVGDEADYSCQVWDSSSDHVVFGGGTKLTVLGQPKAAPSVTLFPPSSEELQANKATLVCLISDFYPGAVTVAWKADSSPVKAGVETTTPSKQSNNKYAASSYLSLTPEQWKSHRSYSCQVTHEGSTVEKTVAPTECS
Mean (pM): mean IC50, TF-1.6G4 cell line proliferation assay (Cynomolgus IL-5): 43.8 pM

B3: 3A5.508 (antibody, human IgG4 S228P, lambda, name in Kabat numbering, V domains shown)
VH: B1 VH with G101A
VL: B1 VL with A89V
proportional kd vs parent 3A5.040 (recombinant human IL-5 [2]): 0.8
